Data reported in US20150025225A1 (SHIONOGI, published 2015).
Where two headings read alike, the source gives them in different places.

B1: 12B10 antibody (antibody, IgG2a, V domains shown)
VH: QVTLKESGPGILKPSQTLSLTCSFSGFSLSTSGMGVGWIRQPSGKGLEWLAHIWWNDEKYYNPSLKSQLTISKDTSRNQVFLKITSVDTADTATYYCARSYDGSPFPSWGQGTLVTVSA
VL: DIQMTQSPSSLSASLGGKVTITCKASQDINKYIAWFQHKPGKGPRLLMAYPFTLQPGIPSRFSGNGSGRDYSFSISNLEPEDIATYYCLQYDNLLWTFGGGTRLEIK
B2: 47B2 antibody (antibody, IgG2a, V domains shown)
VH: QVALKESGPGILQPSQTLSLTCSFSGFSLSTSGMGVGWIRQPSGKGLEWLAHIWWHGNKYYSTGLKSRLTISKDTSNNQVFLKIASVDTADTATYYCARISAGYPLDYWGQGTSVTVSS
VL: DIQMTQSPSSLSASLGGKVTITCKASQDINKYIVWYQHKPGKGPRLLIHYTSTLQPGFPSRFSGSGSGRDYSLSITNLEPEDIATYYCLQYDNLLWTFGGGTKLEIK

Columns and labels:
Test in all cases: ELISA-type titration, A450 against antibody concentration; protocol not described in the text
[1] = target: T1, cynomolgus monkey EL-C2 tag (cynomolgus monkey, UniProt Q9Y5X9 21-500 (human entry), limits assumed)
T1 construct: used as heparin extract of transfected HEK293F cells; also called cynomolgus EL
T1 chain: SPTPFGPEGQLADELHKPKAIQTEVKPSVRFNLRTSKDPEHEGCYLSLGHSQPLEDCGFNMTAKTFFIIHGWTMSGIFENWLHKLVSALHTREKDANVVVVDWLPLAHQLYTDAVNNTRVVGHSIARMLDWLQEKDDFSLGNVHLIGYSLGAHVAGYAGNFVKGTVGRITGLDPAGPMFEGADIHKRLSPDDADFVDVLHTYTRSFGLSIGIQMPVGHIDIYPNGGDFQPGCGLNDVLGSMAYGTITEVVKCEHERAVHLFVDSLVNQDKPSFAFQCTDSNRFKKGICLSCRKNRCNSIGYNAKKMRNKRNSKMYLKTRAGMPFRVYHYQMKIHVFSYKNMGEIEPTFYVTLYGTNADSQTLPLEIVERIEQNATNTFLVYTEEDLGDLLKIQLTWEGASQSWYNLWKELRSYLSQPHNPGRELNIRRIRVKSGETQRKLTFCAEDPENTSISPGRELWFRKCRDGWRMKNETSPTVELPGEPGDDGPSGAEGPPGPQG

[2] = target: T2, mouse EL-C2 tag (mouse, UniProt Q9WVG5 21-500)
T2 construct: used as heparin extract of transfected HEK293F cells
T2 sequence: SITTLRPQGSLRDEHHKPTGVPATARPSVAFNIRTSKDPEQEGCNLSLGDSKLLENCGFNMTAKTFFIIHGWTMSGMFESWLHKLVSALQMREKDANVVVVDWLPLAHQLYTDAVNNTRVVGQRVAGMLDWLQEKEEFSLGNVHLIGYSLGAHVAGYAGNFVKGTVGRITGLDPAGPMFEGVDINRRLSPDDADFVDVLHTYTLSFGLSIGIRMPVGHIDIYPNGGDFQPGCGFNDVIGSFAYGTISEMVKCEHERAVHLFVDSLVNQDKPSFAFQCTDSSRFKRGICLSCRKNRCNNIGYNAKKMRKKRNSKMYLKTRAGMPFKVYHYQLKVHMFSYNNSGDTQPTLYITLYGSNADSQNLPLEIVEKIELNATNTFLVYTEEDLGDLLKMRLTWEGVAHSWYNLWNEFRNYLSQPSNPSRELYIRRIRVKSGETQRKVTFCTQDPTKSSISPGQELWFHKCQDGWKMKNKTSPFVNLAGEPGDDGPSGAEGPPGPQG

[3] = target: T1, cynomolgus monkey EL-C2 tag
[4] = target: T3, rabbit EL-C2 tag (rabbit)
T3 construct: used as cell lysate or heparin extract; also called rabbit EL lysate; rabbit EL enzyme solution
T3 chain: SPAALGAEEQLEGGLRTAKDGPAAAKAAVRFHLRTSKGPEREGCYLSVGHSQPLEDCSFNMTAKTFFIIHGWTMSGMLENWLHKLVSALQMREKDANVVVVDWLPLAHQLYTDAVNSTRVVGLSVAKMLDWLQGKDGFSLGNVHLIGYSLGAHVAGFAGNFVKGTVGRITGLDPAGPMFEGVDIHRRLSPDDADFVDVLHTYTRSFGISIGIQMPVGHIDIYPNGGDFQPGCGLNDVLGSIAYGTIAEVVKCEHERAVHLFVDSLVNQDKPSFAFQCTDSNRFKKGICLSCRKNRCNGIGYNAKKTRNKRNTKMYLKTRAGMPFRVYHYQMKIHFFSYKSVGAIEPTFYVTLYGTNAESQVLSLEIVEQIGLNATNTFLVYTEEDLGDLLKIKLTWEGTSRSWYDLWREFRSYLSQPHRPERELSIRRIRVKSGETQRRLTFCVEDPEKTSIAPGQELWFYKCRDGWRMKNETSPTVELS

[5] = target: T4, human EL[331-459]-mouse EL-C2 tag (human/mouse chimera, UniProt Q9WVG5 21-500 (mouse entry))
T4 construct: used as heparin extract of transfected HEK293F cells; also called human-mouse chimera EL; Human-Mouse chimeric EL
T4 chain: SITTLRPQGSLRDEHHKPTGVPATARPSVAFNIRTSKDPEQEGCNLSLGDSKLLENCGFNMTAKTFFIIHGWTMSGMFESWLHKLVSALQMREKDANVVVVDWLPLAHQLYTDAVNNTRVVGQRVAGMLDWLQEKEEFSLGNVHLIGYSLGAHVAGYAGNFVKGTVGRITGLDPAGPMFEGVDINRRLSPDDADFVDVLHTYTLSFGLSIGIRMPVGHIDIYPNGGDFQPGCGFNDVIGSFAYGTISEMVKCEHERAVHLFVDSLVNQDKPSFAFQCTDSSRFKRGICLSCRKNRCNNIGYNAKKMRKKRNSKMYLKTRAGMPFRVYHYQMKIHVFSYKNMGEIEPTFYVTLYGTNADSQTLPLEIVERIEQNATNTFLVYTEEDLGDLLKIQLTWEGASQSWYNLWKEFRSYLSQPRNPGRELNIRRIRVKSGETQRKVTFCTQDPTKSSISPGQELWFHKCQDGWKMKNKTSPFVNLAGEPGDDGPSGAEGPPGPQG

[6] = target: T2, mouse EL-C2 tag; remark: listed apart in the source

Row | Binder | EC50 (read off the curve) [1] | binding result [2] | EC50 (read off the curve) [3] | EC50 (read off the curve) [4] | EC50 (read off the curve) [5] | binding result [6]
1 | B1 | ~7 ng/mL | no binding | – | – | – | –
2 | B2 | – | – | ~6 ng/mL | ~7 ng/mL | ~10 ng/mL | binds
